± gives the uncertainty stated by the source.
B1: Transcriptional repressor p66-beta, residues 415 to 455; numbered along this chain, Q8WXI9 (parent)
chain: VEPFVCAQCRTDFTPHWKQEKNGKILCEQCMTSNQKKALKA

Variants of: B1
Assay: abundance fitness (aPCA) (normalised: wild type 0, dead -1); higher = more abundant; growth selection in yeast, the domain comes from the species named
Details: Homo sapiens

In order of falling abundance fitness:
1. E2D  1.14 ± 0.48
2. Q8G  0.934 ± 0.048
3. Q8E  0.849 ± 0.06
4. R10S  0.717 ± 0.059
5. I25D  0.714 ± 0.27
6. R10V  0.703 ± 0.058
7. F4M  0.64 ± 0.073
8. T11V  0.587 ± 0.071
9. L39N  0.54 ± 0.45
10. G23H  0.385 ± 0.27
11. A7G  0.368 ± 0.053
12. F4N  0.34 ± 0.12
13. R10W  0.338 ± 0.068
14. A7C  0.325 ± 0.089
15. Q19G  0.323 ± 0.052
16. P3A  0.313 ± 0.087
17. T11Q  0.312 ± 0.069
18. N22C  0.289 ± 0.12
19. W17D  0.285 ± 0.11
20. R10E  0.27 ± 0.13
21. K40P  0.229 ± 0.24
22. P3G  0.22 ± 0.053
23. P3E  0.213 ± 0.098
24. A41L  0.211 ± 0.14
25. V1K  0.195 ± 0.21
26. K37Q  0.168 ± 0.079
27. Q19E  0.163 ± 0.11
28. M31Y  0.161 ± 0.19
29. W17C  0.149 ± 0.093
30. K21R  0.129 ± 0.057
31. Q35Y  0.116 ± 0.43
32. Q19P  0.109 ± 0.13
33. N22Q  0.106 ± 0.12
34. Q19A  0.106 ± 0.066
35. Q19C  0.103 ± 0.16
36. K37P  0.1 ± 0.088
37. K18G  0.098 ± 0.071
38. K40E  0.084 ± 0.089
39. D12H  0.081 ± 0.13
40. A7I  0.078 ± 0.11
41. I25P  0.069 ± 0.096
42. A38S  0.066 ± 0.12
43. N22K  0.066 ± 0.13
44. D12A  0.064 ± 0.087
45. K40G  0.06 ± 0.064
46. A38K  0.059 ± 0.096
47. S33M  0.048 ± 0.088
48. G23T  0.045 ± 0.15
49. F4G  0.044 ± 0.052
50. C27H  0.039 ± 0.18
51. F4L  0.036 ± 0.077
52. E28N  0.03 ± 0.13
53. K24R  0.028 ± 0.059
54. N22P  0.027 ± 0.16
55. Q19M  0.026 ± 0.097
56. Q35T  0.018 ± 0.24
57. K37A  0.018 ± 0.067
58. H16D  0.015 ± 0.099
59. R10D  0.014 ± 0.092
60. K24H  0.013 ± 0.42
61. N22D  0.011 ± 0.14
62. K18C  0.01 ± 0.078
63. W17H  0.009 ± 0.14
64. K21A  0.008 ± 0.068
65. A41S  0.004 ± 0.23
66. L26F  0.003 ± 0.12
67. S33D  0.002 ± 0.24
68. V1D  -0.002 ± 0.12
69. E28S  -0.006 ± 0.087
70. K36G  -0.006 ± 0.053
71. W17A  -0.009 ± 0.07
72. S33P  -0.011 ± 0.17
73. E20V  -0.013 ± 0.092
74. K24G  -0.02 ± 0.058
75. K36T  -0.024 ± 0.075
76. T11P  -0.025 ± 0.076
77. I25K  -0.026 ± 0.095
78. K21V  -0.026 ± 0.093
79. Q19R  -0.029 ± 0.069
80. V5M  -0.03 ± 0.17
81. T32I  -0.033 ± 0.13
82. M31E  -0.033 ± 0.085
83. E20G  -0.034 ± 0.063
84. A38V  -0.04 ± 0.073
85. T14S  -0.042 ± 0.12
86. T32A  -0.047 ± 0.061
87. A38L  -0.053 ± 0.094
88. K37S  -0.056 ± 0.093
89. K36A  -0.062 ± 0.073
90. E28G  -0.066 ± 0.072
91. K36M  -0.078 ± 0.09
92. Q35S  -0.087 ± 0.19
93. A7P  -0.091 ± 0.1
94. E2F  -0.1 ± 0.28
95. Q35D  -0.103 ± 0.1
96. G23S  -0.104 ± 0.14
97. L39E  -0.108 ± 0.1
98. K36S  -0.113 ± 0.089
99. D12P  -0.118 ± 0.086
100. I25E  -0.118 ± 0.11
101. K40V  -0.121 ± 0.069
102. S33R  -0.122 ± 0.072
103. V5I  -0.126 ± 0.13
104. F4K  -0.137 ± 0.17
105. H16Q  -0.14 ± 0.11
106. T14C  -0.145 ± 0.16
107. K24V  -0.148 ± 0.076
108. Q29G  -0.15 ± 0.07
109. Q29F  -0.153 ± 0.12
110. N34G  -0.156 ± 0.07
111. A7L  -0.158 ± 0.061
112. K18T  -0.164 ± 0.17
113. V1F  -0.17 ± 0.21
114. T32Q  -0.173 ± 0.092
115. K24T  -0.174 ± 0.14
116. S33L  -0.176 ± 0.089
117. T32C  -0.177 ± 0.17
118. M31R  -0.178 ± 0.062
119. N34R  -0.179 ± 0.064
120. A38R  -0.19 ± 0.064
121. F4R  -0.19 ± 0.062
122. K37D  -0.191 ± 0.21
123. N34C  -0.197 ± 0.091
124. L39T  -0.199 ± 0.13
125. F13D  -0.21 ± 0.22
126. K40Q  -0.218 ± 0.23
127. E28Q  -0.222 ± 0.12
128. K37N  -0.226 ± 0.19
129. E2V  -0.227 ± 0.072
130. K24S  -0.228 ± 0.095
131. H16P  -0.23 ± 0.14
132. K36D  -0.239 ± 0.14
133. N22L  -0.241 ± 0.12
134. Q29T  -0.253 ± 0.12
135. I25W  -0.287 ± 0.1
136. V5P  -0.29 ± 0.12
137. T14I  -0.298 ± 0.13
138. Q29W  -0.3 ± 0.15
139. I25A  -0.306 ± 0.07
140. T11F  -0.306 ± 0.23
141. A7Y  -0.309 ± 0.12
142. T32S  -0.312 ± 0.13
143. N34L  -0.327 ± 0.092
144. Q29Y  -0.329 ± 0.32
145. K36L  -0.329 ± 0.11
146. E2I  -0.342 ± 0.37
147. P15F  -0.351 ± 0.18
148. V5C  -0.351 ± 0.23
149. E28F  -0.356 ± 0.21
150. N22F  -0.377 ± 0.18
151. L26T  -0.39 ± 0.16
152. C9A  -0.417 ± 0.079
153. V1S  -0.444 ± 0.2
154. C30A  -0.488 ± 0.13
155. Q29C  -0.491 ± 0.36
156. C27D  -0.504 ± 0.3
157. P3D  -0.521 ± 0.27
158. V5D  -0.568 ± 0.27
159. C30H  -0.672 ± 0.28
160. C9M  -0.716 ± 0.3
161. C9S  -0.733 ± 0.27
162. C27Q  -0.79 ± 0.29
163. C30R  -0.84 ± 0.12
164. C6S  -0.911 ± 0.23
165. S33F  -0.919 ± 0.46
166. C6F  -0.944 ± 0.43
167. C6M  -1.12 ± 0.22

From the Human Domainome abundance scans (Beltran et al. 2025)
